Measurements published in US20160120951A1 (ZEALAND PHARMA A S, published 2016).
Numbered stars: 1 amine (or outer) side, 2 acyl side, 3 side chain; on linkers, the order of the positions; unused ones are H or OH. Square brackets hold non-standard residues; d marks the D form. Side chains are listed from the residue outwards. * marks the point of attachment. γGlu = O=C(O)[C@H](CCC(=O)[*:2])N[*:1]; Palmitoyl = CCCCCCCCCCCCCCCC(=O)*; Aib = CC(C)(N)C(=O)O

B1: Compound 1 (peptide)
peptide: H-HSQGTFTSDYSKYLDSKAAHDFVEWLLRA-NH2
B2: Compound 11 (peptide)
peptide: H-H[Aib]QGTFTSDYSKYLDSK([γGlu-Palmitoyl])AAHDFVEWLLRA-NH2
SMILES: CCCCCCCCCCCCCCCC(=O)N[C@@H](CCC(=O)NCCCC[C@H](NC(=O)[C@H](CO)NC(=O)[C@H](CC(=O)O)NC(=O)[C@H](CC(C)C)NC(=O)[C@H](Cc1ccc(O)cc1)NC(=O)[C@H](CCCCN)NC(=O)[C@H](CO)NC(=O)[C@H](Cc1ccc(O)cc1)NC(=O)[C@H](CC(=O)O)NC(=O)[C@H](CO)NC(=O)[C@@H](NC(=O)[C@H](Cc1ccccc1)NC(=O)[C@@H](NC(=O)CNC(=O)[C@H](CCC(N)=O)NC(=O)C(C)(C)NC(=O)[C@@H](N)Cc1c[nH]cn1)[C@@H](C)O)[C@@H](C)O)C(=O)N[C@@H](C)C(=O)N[C@@H](C)C(=O)N[C@@H](Cc1c[nH]cn1)C(=O)N[C@@H](CC(=O)O)C(=O)N[C@@H](Cc1ccccc1)C(=O)N[C@H](C(=O)N[C@@H](CCC(=O)O)C(=O)N[C@@H](Cc1c[nH]c2ccccc12)C(=O)N[C@@H](CC(C)C)C(=O)N[C@@H](CC(C)C)C(=O)N[C@@H](CCCNC(=N)N)C(=O)N[C@@H](C)C(N)=O)C(C)C)C(=O)O

Experiments:
Test in all cases: cell-based or functional assay
[1] = biological target: T1, human glucagon receptor (Glucagon-R) (human, UniProt P47871 26-477)
[2] = biological target: human glucagon-like peptide 1 receptor (GLP-1R) (human, UniProt P43220 24-463)
[3] = biological target: T1, human glucagon receptor (Glucagon-R); remark: listed apart in the source

human glucagon-like peptide 1 receptor (GLP-1R), sequence (P43220 24-463): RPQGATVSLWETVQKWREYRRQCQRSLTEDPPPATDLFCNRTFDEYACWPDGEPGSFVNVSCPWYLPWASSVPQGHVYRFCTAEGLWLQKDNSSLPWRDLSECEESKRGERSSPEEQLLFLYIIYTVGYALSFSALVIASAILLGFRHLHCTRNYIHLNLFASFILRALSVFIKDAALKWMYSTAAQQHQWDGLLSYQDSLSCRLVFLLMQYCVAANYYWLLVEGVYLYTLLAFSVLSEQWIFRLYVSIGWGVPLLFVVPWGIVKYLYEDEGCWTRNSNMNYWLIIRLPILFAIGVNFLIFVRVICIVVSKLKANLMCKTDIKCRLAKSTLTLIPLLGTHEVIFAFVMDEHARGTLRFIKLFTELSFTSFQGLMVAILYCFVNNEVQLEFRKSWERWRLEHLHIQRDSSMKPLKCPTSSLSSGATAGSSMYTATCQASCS

Binder	EC50 (nM) GluR, cAMP formation [1]	EC50 (nM) GLP-1R, cAMP formation [2]	GluR EC50 (nM) (1), cAMP formation in primary human hepatocytes [3]	GluR EC50 (nM) (2), cAMP formation in primary human hepatocytes [3]	GluR EC50 (nM) (log avg), cAMP formation in primary human hepatocytes [3]
B1	0.06 nM	0.06 nM	1.4 nM	2.2 nM	1.8 nM
B2	0.16 nM	0.09 nM	32.9 nM	25.5 nM	28.9 nM
